# Results taken from IntAct's records for PubMed 19135897.
# B1: Mitochondrial Rho GTPase 1 (Homo sapiens), Q8IXI2 (parent)
# chain: MKKDVRILLVGEPRVGKTSLIMSLVSEEFPEEVPPRAEEITIPADVTPERVPTHIVDYSEAEQSDEQLHQEISQANVICIVYAVNNKHSIDKVTSRWIPLINERTDKDSRLPLILVGNKSDLVEYSSMETILPIMNQYTEIETCVECSAKNLKNISELFYYAQKAVLHPTGPLYCPEEKEMKPACIKALTRIFKISDQDNDGTLNDAELNFFQRICFNTPLAPQALEDVKNVVRKHISDGVADSGLTLKGFLFLHTLFIQRGRHETTWTVLRRFGYDDDLDLTPEYLFPLLKIPPDCTTELNHHAYLFLQSTFDKHDLDRDCALSPDELKDLFKVFPYIPWGPDVNNTVCTNERGWITYQGFLSQWTLTTYLDVQRCLEYLGYLGYSILTEQESQASAVTVTRDKKIDLQKKQTQRNVFRCNVIGVKNCGKSGVLQALLGRNLMRQKKIREDHKSYYAINTVYVYGQEKYLLLHDISESEFLTEAEIICDVVCLVYDVSNPKSFEYCARIFKQHFMDSRIPCLIVAAKSDLHEVKQEYSISPTDFCRKHKMPPPQAFTCNTADAPSKDIFVKLTTMAMYPHVTQADLKSSTFWLRASFGATVFAVLGFAMYKALLKQR
# B2: Mitochondrial Rho GTPase (Drosophila melanogaster (Fruit fly)), Q8IMX7 (parent)
# chain: MGQYTASQRKNVRILLVGDAGVGKTSLILSLVSEEYPEEVPPRAEEITIPANVTPEQVPTSIVDFSAVEQSEDALAAEINKAHVVCIVYAVDDDDTLDRITSHWLPLVRAKCNPSLDGEGDAEAEAEGDTQREPIRKPIVLVGNKIDLIEYSTMDSVLAIMEDYPEIESCVECSAKSLHNISEMFYYAQKAVLHPTSPLYMMEEQELTSACKKSLVRIFKICDIDGDNLLNDYELNLFQRRCFNTPLQPQILDEVKAVIQKNVPDGIYNDAVTLKGFLFLHCLFIQRGRNETTWAVLRRFGYNDQLEMCQEYLRPPLKIPPGSSTELSHRGQQFLIAVFERYDRDGDGALSPEEHKMLFSTCPAAPWSYSTDIRKSCPINETTGWVTLHGWLCRWTLMTLIDVVKTMEYLAYLGFNVHENDSQLAAIHVTRERRIDLAKRQSSRSVYKCHVIGPKGSGKTGMCRGFLVEDMHKLIGKEFKTNVVNCINSVQVYGQEKHLILRDIDVRHALDPLQPQEVNCDVACLVYDSSNPRSFEYVARIYIKYYAESKIPVMIVGTKCDMDERRQDYLMQPSEFCDKYKLLPPHLFSLKTNKKELYTKLATMAAFPHLRQFGLMTEDPKLWLKAGLGVAAATMLGFIVLKTISAAGAHTR
# Assays:
# [1] = variants of: B1; settings: with kif5c_rat Kif5c
# [2] = variants of: B1; settings: with kif5c_rat Kif5c; remark: listed apart in the source
# [3] = variants of: B1; settings: with kif5c_human KIF5C
# [4] = variants of: B2; settings: with kinh_rat Kif5b
Variant,effect of a mutation on the interaction [1],effect of a mutation on the interaction [2],effect of a mutation on the interaction [3],effect of a mutation on the interaction [4]
E208K;E328K,decreasing interaction,decreasing interaction,decreasing interaction strength,–
E234K;D345K,–,–,–,decreasing interaction
